According to PMC9352680, “A comprehensive thermodynamic model for RNA binding by the Saccharomyces cerevisiae Pumilio protein PUF4”:

B1: Ia_S4_P5E.1_K5.1_C5.1_H5.1_A5.1_[A7C]_F5.1_T5.1 (ssRNA)
RNA: UUUGACAACUGAUCGUUCUUUCUUGUAUUCUUAUUCUUUCUCGAUCAGUUGUCUUU

Molecular target: T1, PUF4 RNA-binding domain (Saccharomyces cerevisiae, UniProt P25339 537-888)
T1 sequence: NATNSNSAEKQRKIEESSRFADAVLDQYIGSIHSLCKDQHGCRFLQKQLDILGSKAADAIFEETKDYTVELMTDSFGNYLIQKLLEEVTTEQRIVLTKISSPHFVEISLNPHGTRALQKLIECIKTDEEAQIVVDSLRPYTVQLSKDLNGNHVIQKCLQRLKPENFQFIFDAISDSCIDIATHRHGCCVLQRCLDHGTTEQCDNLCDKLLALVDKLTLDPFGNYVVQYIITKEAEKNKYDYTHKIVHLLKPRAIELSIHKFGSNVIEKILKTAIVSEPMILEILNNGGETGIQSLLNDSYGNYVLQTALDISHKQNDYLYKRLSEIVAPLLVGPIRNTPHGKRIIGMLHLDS
Assay: Mg; RNA-MaP; 20 mM Na-HEPES pH 7.4, 30 mM KOAc, 0.75 mM MgCl2, 0.1% Tween-20, 5% glycerol, 0.1 mg/mL BSA, 2 mM DTT; 25 C; 0.0125-409.6 nM protein
Details: tags: N-His6-TEV cleaved; C-SNAP kept, Cy3B-labelled; label: tethered on chip by stalled RNA polymerase

Binder	Kd
UCUCUUUGUAUUGUUCUCUU (ssRNA) [Ic_S1_P3E.1_K3.1_C3.1_H3.1_A3.1_[A6T]_F3.1_[T7G]_[A8T]_T3.1]	38.1 nM
UCUCUUUGUAGCUUUUCUCUU (ssRNA) [Ic_S1_P4E.1_K4.1_C4.1_H4.1_A4.1_[T5G]_[A6C]_F4.1_[A9T]_T4.1]	361 nM
UCUCUUUGUAGCAGCUCUCUU (ssRNA) [Ic_S1_P4E.1_K4.1_C4.1_H4.1_A4.1_[T5G]_[A6C]_[T7A]_F4.1_[T8G]_[A9C]_T4.1]	> 2300 nM
UCUCUUUGUAUACGUCUCUU (ssRNA) [Ic_S1_P3E.1_K3.1_C3.1_H3.1_A3.1_F3.1_[T7C]_[A8G]_T3.1]	82 nM
UCUCUUUGUAGCAAUUCUCUU (ssRNA) [Ic_S1_P4E.1_K4.1_C4.1_H4.1_A4.1_[T5G]_[A6C]_[T7A]_F4.1_[T8A]_[A9T]_T4.1]	857 nM
UCUCUUUGUAGCCAUUCUCUU (ssRNA) [Ic_S1_P4E.1_K4.1_C4.1_H4.1_A4.1_[T5G]_[A6C]_[T7C]_F4.1_[T8A]_[A9T]_T4.1]	1890 nM
UCUCUUUGUAGCAGUUCUCUU (ssRNA) [Ic_S1_P4E.1_K4.1_C4.1_H4.1_A4.1_[T5G]_[A6C]_[T7A]_F4.1_[T8G]_[A9T]_T4.1]	1440 nM
UCUCUUUGUAUCGCUCUCUU (ssRNA) [Ic_S1_P3E.1_K3.1_C3.1_H3.1_A3.1_[A6C]_F3.1_[T7G]_[A8C]_T3.1]	859 nM
UCUCUUUGUAGCGUCUCUCUU (ssRNA) [Ic_S1_P4E.1_K4.1_C4.1_H4.1_A4.1_[T5G]_[A6C]_[T7G]_F4.1_[A9C]_T4.1]	1710 nM
UCUCUUUGUAUGCCUCUCUU (ssRNA) [Ic_S1_P3E.1_K3.1_C3.1_H3.1_A3.1_[A6G]_F3.1_[T7C]_[A8C]_T3.1]	1720 nM
UCUCUUUGUAGCUUCUCUCUU (ssRNA) [Ic_S1_P4E.1_K4.1_C4.1_H4.1_A4.1_[T5G]_[A6C]_F4.1_[A9C]_T4.1]	612 nM
UCUCUUUGUAGCCACUCUCUU (ssRNA) [Ic_S1_P4E.1_K4.1_C4.1_H4.1_A4.1_[T5G]_[A6C]_[T7C]_F4.1_[T8A]_[A9C]_T4.1]	> 2300 nM
UCUCUUUGUAGCCGUUCUCUU (ssRNA) [Ic_S1_P4E.1_K4.1_C4.1_H4.1_A4.1_[T5G]_[A6C]_[T7C]_F4.1_[T8G]_[A9T]_T4.1]	> 2300 nM
UCUCUUUGUAUGAUUCUCUU (ssRNA) [Ic_S1_P3E.1_K3.1_C3.1_H3.1_A3.1_[A6G]_F3.1_[T7A]_[A8T]_T3.1]	42.2 nM
UCUCUUUGUAGUGCUUCUCUU (ssRNA) [Ic_S1_P4E.1_K4.1_C4.1_H4.1_A4.1_[T5G]_[A6T]_[T7G]_F4.1_[T8C]_[A9T]_T4.1]	> 2300 nM
UCUCUUUGUAGCUCUUCUCUU (ssRNA) [Ic_S1_P4E.1_K4.1_C4.1_H4.1_A4.1_[T5G]_[A6C]_F4.1_[T8C]_[A9T]_T4.1]	2020 nM
UCUCUUUGUAUUAGUCUCUU (ssRNA) [Ic_S1_P3E.1_K3.1_C3.1_H3.1_A3.1_[A6T]_F3.1_[T7A]_[A8G]_T3.1]	349 nM
UCUCUUUGUAUCGUUCUCUU (ssRNA) [Ic_S1_P3E.1_K3.1_C3.1_H3.1_A3.1_[A6C]_F3.1_[T7G]_[A8T]_T3.1]	326 nM
UCUCUUUGUAGCCCUUCUCUU (ssRNA) [Ic_S1_P4E.1_K4.1_C4.1_H4.1_A4.1_[T5G]_[A6C]_[T7C]_F4.1_[T8C]_[A9T]_T4.1]	> 2300 nM
UCUCUUUGUAUGGUUCUCUU (ssRNA) [Ic_S1_P3E.1_K3.1_C3.1_H3.1_A3.1_[A6G]_F3.1_[T7G]_[A8T]_T3.1]	509 nM

Binder	Kd
UCUCUUUGUAGCACGUCUCUU (ssRNA) [Ic_S1_P4E.1_K4.1_C4.1_H4.1_A4.1_[T5G]_[A6C]_[T7A]_F4.1_[T8C]_[A9G]_T4.1]	> 2300 nM
UCUCUUUGUAGCAUUUCUCUU (ssRNA) [Ic_S1_P4E.1_K4.1_C4.1_H4.1_A4.1_[T5G]_[A6C]_[T7A]_F4.1_[A9T]_T4.1]	32.4 nM
UCUCUUUGUAUUACUCUCUU (ssRNA) [Ic_S1_P3E.1_K3.1_C3.1_H3.1_A3.1_[A6T]_F3.1_[T7A]_[A8C]_T3.1]	167 nM
UCUCUUUGUAUCGGUCUCUU (ssRNA) [Ic_S1_P3E.1_K3.1_C3.1_H3.1_A3.1_[A6C]_F3.1_[T7G]_[A8G]_T3.1]	1940 nM
UCUCUUUGUAUUCCUCUCUU (ssRNA) [Ic_S1_P3E.1_K3.1_C3.1_H3.1_A3.1_[A6T]_F3.1_[T7C]_[A8C]_T3.1]	113 nM
UCUCUUUGUAGUGUGUCUCUU (ssRNA) [Ic_S1_P4E.1_K4.1_C4.1_H4.1_A4.1_[T5G]_[A6T]_[T7G]_F4.1_[A9G]_T4.1]	575 nM
UCUCUUUGUAUUAUUCUCUU (ssRNA) [Ic_S1_P3E.1_K3.1_C3.1_H3.1_A3.1_[A6T]_F3.1_[T7A]_[A8T]_T3.1]	14.5 nM
UCUCUUUGUAGCUUGUCUCUU (ssRNA) [Ic_S1_P4E.1_K4.1_C4.1_H4.1_A4.1_[T5G]_[A6C]_F4.1_[A9G]_T4.1]	1590 nM
UCUCUUUGUAUAGUUCUCUU (ssRNA) [Ic_S1_P3E.1_K3.1_C3.1_H3.1_A3.1_F3.1_[T7G]_[A8T]_T3.1]	11 nM
UCUCUUUGUAGCGUUUCUCUU (ssRNA) [Ic_S1_P4E.1_K4.1_C4.1_H4.1_A4.1_[T5G]_[A6C]_[T7G]_F4.1_[A9T]_T4.1]	964 nM
UCUCUUUGUAGCCGAUCUCUU (ssRNA) [Ic_S1_P4E.1_K4.1_C4.1_H4.1_A4.1_[T5G]_[A6C]_[T7C]_F4.1_[T8G]_T4.1]	> 2300 nM
UCUCUUUGUAUAGCUCUCUU (ssRNA) [Ic_S1_P3E.1_K3.1_C3.1_H3.1_A3.1_F3.1_[T7G]_[A8C]_T3.1]	82.1 nM
UCUCUUUGUAUACCUCUCUU (ssRNA) [Ic_S1_P3E.1_K3.1_C3.1_H3.1_A3.1_F3.1_[T7C]_[A8C]_T3.1]	48.9 nM
UCUCUUUGUAGCUGCUCUCUU (ssRNA) [Ic_S1_P4E.1_K4.1_C4.1_H4.1_A4.1_[T5G]_[A6C]_F4.1_[T8G]_[A9C]_T4.1]	2070 nM
UCUCUUUGUAUUGGUCUCUU (ssRNA) [Ic_S1_P3E.1_K3.1_C3.1_H3.1_A3.1_[A6T]_F3.1_[T7G]_[A8G]_T3.1]	1360 nM
UCUCUUUGUAUUCUUCUCUU (ssRNA) [Ic_S1_P3E.1_K3.1_C3.1_H3.1_A3.1_[A6T]_F3.1_[T7C]_[A8T]_T3.1]	32.5 nM
UCUCUUUGUAGUGCCUCUCUU (ssRNA) [Ic_S1_P4E.1_K4.1_C4.1_H4.1_A4.1_[T5G]_[A6T]_[T7G]_F4.1_[T8C]_[A9C]_T4.1]	> 2300 nM
UCUCUUUGUAGCACAUCUCUU (ssRNA) [Ic_S1_P4E.1_K4.1_C4.1_H4.1_A4.1_[T5G]_[A6C]_[T7A]_F4.1_[T8C]_T4.1]	1440 nM
UCUCUUUGUAUGACUCUCUU (ssRNA) [Ic_S1_P3E.1_K3.1_C3.1_H3.1_A3.1_[A6G]_F3.1_[T7A]_[A8C]_T3.1]	1070 nM
B1	5.51 nM

Binder	Kd
UCUCUUUGUAAAACUCUCUU (ssRNA) [Ic_S1_P3E.1_K3.1_C3.1_H3.1_A3.1_[T5A]_F3.1_[T7A]_[A8C]_T3.1]	369 nM
UCUCUUUGUAGCGUGUCUCUU (ssRNA) [Ic_S1_P4E.1_K4.1_C4.1_H4.1_A4.1_[T5G]_[A6C]_[T7G]_F4.1_[A9G]_T4.1]	2000 nM
UCUCUUUGUAUCACUCUCUU (ssRNA) [Ic_S1_P3E.1_K3.1_C3.1_H3.1_A3.1_[A6C]_F3.1_[T7A]_[A8C]_T3.1]	127 nM
UCUCUUUGUAUUCGUCUCUU (ssRNA) [Ic_S1_P3E.1_K3.1_C3.1_H3.1_A3.1_[A6T]_F3.1_[T7C]_[A8G]_T3.1]	523 nM
UCUCUUUGUAUCAGUCUCUU (ssRNA) [Ic_S1_P3E.1_K3.1_C3.1_H3.1_A3.1_[A6C]_F3.1_[T7A]_[A8G]_T3.1]	483 nM
UCUCUUUGUAUCCCUCUCUU (ssRNA) [Ic_S1_P3E.1_K3.1_C3.1_H3.1_A3.1_[A6C]_F3.1_[T7C]_[A8C]_T3.1]	531 nM
UCUCUUUGUAGCAUCUCUCUU (ssRNA) [Ic_S1_P4E.1_K4.1_C4.1_H4.1_A4.1_[T5G]_[A6C]_[T7A]_F4.1_[A9C]_T4.1]	398 nM
UCUCUUUGUAUGCUUCUCUU (ssRNA) [Ic_S1_P3E.1_K3.1_C3.1_H3.1_A3.1_[A6G]_F3.1_[T7C]_[A8T]_T3.1]	434 nM
UCUCUUUGUAUCCUUCUCUU (ssRNA) [Ic_S1_P3E.1_K3.1_C3.1_H3.1_A3.1_[A6C]_F3.1_[T7C]_[A8T]_T3.1]	39.8 nM
UCUCUUUGUAUAUAUCUCUU (ssRNA) [If_S1_P3E.1_K3.1_C3.1_H3.1_A3.1_F3.1_T3.1]	4.91 nM
UCUCUUUGUAGCCCGUCUCUU (ssRNA) [Ic_S1_P4E.1_K4.1_C4.1_H4.1_A4.1_[T5G]_[A6C]_[T7C]_F4.1_[T8C]_[A9G]_T4.1]	> 2300 nM
UCUCUUUGUAUACUUCUCUU (ssRNA) [Ic_S1_P3E.1_K3.1_C3.1_H3.1_A3.1_F3.1_[T7C]_[A8T]_T3.1]	5.59 nM
UCUCUUUGUAGCAACUCUCUU (ssRNA) [Ic_S1_P4E.1_K4.1_C4.1_H4.1_A4.1_[T5G]_[A6C]_[T7A]_F4.1_[T8A]_[A9C]_T4.1]	1210 nM
UCUCUUUGUAGCAAAUCUCUU (ssRNA) [Ic_S1_P4E.1_K4.1_C4.1_H4.1_A4.1_[T5G]_[A6C]_[T7A]_F4.1_[T8A]_T4.1]	833 nM
UCUCUUUGUAGCACUUCUCUU (ssRNA) [Ic_S1_P4E.1_K4.1_C4.1_H4.1_A4.1_[T5G]_[A6C]_[T7A]_F4.1_[T8C]_[A9T]_T4.1]	949 nM
UCUCUUUGUAGCCUAUCUCUU (ssRNA) [Ic_S1_P4E.1_K4.1_C4.1_H4.1_A4.1_[T5G]_[A6C]_[T7C]_F4.1_T4.1]	34.3 nM
UCUCUUUGUAGCCUUUCUCUU (ssRNA) [Ic_S1_P4E.1_K4.1_C4.1_H4.1_A4.1_[T5G]_[A6C]_[T7C]_F4.1_[A9T]_T4.1]	679 nM
UCUCUUUGUAUGGCUCUCUU (ssRNA) [Ic_S1_P3E.1_K3.1_C3.1_H3.1_A3.1_[A6G]_F3.1_[T7G]_[A8C]_T3.1]	1730 nM
UCUCUUUGUAGCCGGUCUCUU (ssRNA) [Ic_S1_P4E.1_K4.1_C4.1_H4.1_A4.1_[T5G]_[A6C]_[T7C]_F4.1_[T8G]_[A9G]_T4.1]	> 2300 nM
